Reference: patent US20250064890A1, “PROTEIN COMPOSITIONS FOR THE TREATMENT OF INFLAMMATORY DISEASES” (Unichem Laboratories Limited, priority 2021, published 2025)

Key:
[1] = tested on: 5-Fluorouracil induced OM; experiment: Mucositis severity score, 5-FU induced OM in hamsters; type: in vivo, golden Syrian hamsters; conditions: for Mucositis score: after 12 days, scale 0-5
Experimental: (§1) To induce OM, animals were administered (except normal control) 5-Fluorouracil (5-FU) by intraperitoneal route at doses of 60 mg/kg & 40 mg/kg respectively on first two days. On Day 4, under anesthesia, with aim of enhancing OM, mechanical irritation of the oral mucosa were done using wire brush. Treatment was initiated from Day 4 to Day 12. For group 3 animals 100 μl of vehicle comprising of standard drug Dexamethasone at 0.1 mg was instilled in buccal cheek pouch. For group 4, 5 and 6 animals 100 μl of vehicle comprising of SEQ ID NO. 2 at 0.25 mg, 0.5 mg & 1 mg, respectively was instilled in buccal cheek pouch. At the end of treatment period, cheek pouch of the hamsters was exposed, Mucositis scoring was carried out and images were captured. The animals were then humanely sacrificed, cheek pouch/jugular mucosa were isolated and used for biomarker estimation and histopathological investigation by using ELISA method and Hematoxylin and Eosin (H&E) staining, respectively.
Mucositis severity was scored as given below: • Cheek pouch completely healthy—0; Mild erythema—1; • Severe erythema and superficial erosion—2; Formation of ulcers in one or more places—3; Cumulative ulcer formation about 50% of cheek pouch surface area—4; Complete ulceration of the cheek pouch mucosa—5.

[2] = tested on: 5-Fluorouracil induced OM; experiment: Histopathology score of cheek pouch, 5-FU induced OM in hamsters; type: in vivo, golden Syrian hamsters; conditions: for Histopathology score, Mean: scale 1-5
Experimental: as §1
For histopathology the oral mucosa tissues were sectioned 5 μm thickness and stained with hematoxylin-eosin staining. For study histopathological the sections were analyzed by light microscopy.
The pouch/jugular mucosa were observed and scored for infiltration of inflammatory cells, vasodilatation, presence of hemorrhagic areas, edema, ulcerations, and abscesses.

[3] = tested on: oral (buccal) mucosa cells (TR146); experiment: Sub(G0/G1) cell population (cell cycle) against 5-FU induced damage; type: cell-based, human; conditions: for % Decrease in Apoptotic cells (with respect to control): Sub G0/G1
Experimental: To determine the effect of test item on cell cycle, oral buccal mucosal cells (TR146) were incubated overnight in 5% CO2 incubator at 37° C. for 24 h. […] After 24 h of treatment, cells were exposed to chemotherapy (5-FU 10 mM) for 24 h or radiotherapy (Gamma radiation (3.5 kGy) using Cobalt 60) for 2 h.
After incubation, cells were harvested by trypsinization and processed for Cell cycle assay. Accordingly, cells were harvested into prelabeled centrifuge tubes and centrifuged at 450 g for 5 min at room temperature (RT, low brake). The supernatants were removed carefully and discarded. 1 ml of 1× phosphate buffer saline (PBS) was added to the pellet and resuspended gently to make homogenous suspension. Cells were centrifuged at 450 g for 5 min, RT (low brake). The supernatant was carefully removed leaving behind approx. 100 μl of PBS. Cells were resuspended gently yet thoroughly in residual PBS. Ice-cold 70% ethanol (100 μl) was added drop-wise into cells in each tube while vortexing at low speed (fixation step). Cells stored at 4° C. for 24 h were centrifuged at 450 g for 5 min, RT (low brake). The supernatant was carefully removed without touching the pellet and discarded. 1 ml of 1×PBS was added into pellet and resuspended gently. Cells were incubated for 1 minute at RT. Cells were centrifuged at 450 g for 5 min, RT (low brake). The supernatant was removed carefully without touching the pellet, leaving behind approx. 20-50 μl of PBS. 200 μl of cell cycle reagent was added into each tube. Cells were resuspended gently and mixed. Cells were incubated for 30 min at RT in the dark. The stained samples were transferred into 96-well plates and acquired on flow cytometer (Guava technologies). Percentage of cells in Sub (G0/G1) phase were determined based on the concept that cell cycle reagent contains PI stain, which stains DNA of cells in different phases of cell cycle; Sub (G0/G1), G1, S, G2 and M. Cells in Sub (G0/G1) phase correspond to apoptotic cells. Percent inhibition in apoptotic cells is determined by the formula:
=[(% Sub(G0/G1) cells in 5-FU/radiation alone)−(% Sub(G0/G1) cells in TI+5-FU/radiation)/% Sub(G0/G1) cells in 5-FU/radiation alone]*100

[4] = tested on: oral (buccal) mucosa cells (TR146); experiment: Cytoprotective effect against 5-FU induced damage (MTT); type: cell-based, human
Experimental: The cell viability was assessed by (MTT) assay and compared with positive control (Cells treated with Amifostine, EGCG and EGF and negative assay (untreated cells), wherein the control was the cells that underwent chemotherapy/radiotherapy.
The protective effect of the recombinant lectin on survival of TR146 cells against 5-FU induced damage was determined using following calculations:
The viability of cells was determined as: % Cell viability=(100−% Cytotoxicity); • where, the percentage cytotoxicity corresponding to each treatment was calculated as: % Cytotoxicity=[(R−X)/R]*100, wherein X=Absorbance of cells treated with 5-FU or radiation damage/TI+5-FU, R=Absorbance of Control cells (Untreated) and Percentage protection was calculated as:
{(Absorbance of TI+5-FU or radiation)−(Absorbance of 5-FU or radiation alone)/(Absorbance of Untreated)−(Absorbance of 5-FU alone)}*100

NF-kB = experiment: Multiplex analysis, chemotherapy (5-FU), TR146 cell lysates; type: cell-based, human
Experimental: Oral buccal mucosal cells (TR146) cells were incubated overnight at 37° C. in 5% CO2 incubator. […] The cells were then stimulated with 5-FU (10 mM) for another 24h for chemotherapy and with gamma radiation (3.5 kGy) using Cobalt 60 for radiotherapy. After 24 h, cell culture supernatants were collected from each well and stored at −20° C. till multiplex analysis. For NF-kB estimations, cell lysates were prepared. Levels of biomarkers were estimated using Magpix® multiplex machine. The cells treated with Amifostine (along with 5-FU or radiation) were considered as positive control (PC). Untreated cells (5-FU or radiation alone treated) were used as negative control (NC).
The percent modulation in each sample was determined as follows:
[{Concentration of biomarkers (pg/ml) in Control cells (5-FU or radiation alone treated)−Concentration of biomarkers (pg/ml) in SEQ ID NO: 2+5-FU or radiation treated cells)}/Concentration of biomarkers (pg/ml) in Control cells (5-FU or radiation alone treated)]*100

[5] = hamsters suffering from OM, in words

B1: SEQ ID NO 2: recombinant lectin, variant of the S. rolfsii lectin amino acid sequence (reported as Rec-2 in WO 2010/095143) (protein)
chain: TYKITVRVYQTNPDAFFHPVEKTVWKYANGGTWTITDDQHVLTMGGSGTSGTLRFHADNGESFTATFGVHNYKRWCDIVTNLAADETGMVINQQYYSQKNREEARERQLSNYQVKNAKGRNFQIVYTEAEGNDLHANLIIG
- Mucositis score ([1]; G4, 0.25 mg/animal): 3.00±0.4
- Mucositis score ([1]; G5, 0.5 mg/animal): 2.8±0.3
- Mucositis score ([1]; G6, 1 mg/animal): 4.00±0.3
- mucositis score as compared to the untreated subjects [1, 5]: reduction
- Histopathology score, Mean ([2]; G4, 0.25 mg/Animal): 3
- Histopathology score, Mean ([2]; G5, 0.5 mg/Animal): 2
- Histopathology score, Mean ([2]; G6, 1 mg/Animal): 2.8
- histology score as compared to the untreated subjects [2, 5]: reduction
- % Apoptotic cells (Sub G0/G1) ([3]; 0.1 μg/ml + 5FU (10 mM)): 11.4%
- % Decrease in Apoptotic cells (with respect to control) ([3]; 0.1 μg/ml + 5FU (10 mM)): 63.1%
- % Apoptotic cells (Sub G0/G1) ([3]; 10 μg/ml + 5FU (10 mM)): 6.8%
- % Decrease in Apoptotic cells (with respect to control) ([3]; 10 μg/ml + 5FU (10 mM)): 78%
- % Apoptotic cells (Sub G0/G1) ([3]; 25 μg/ml + 5FU (10 mM)): 14.2%
- % Decrease in Apoptotic cells (with respect to control) ([3]; 25 μg/ml + 5FU (10 mM)): 54.1%
- % Apoptotic cells (Sub G0/G1) ([3]; 50 μg/ml + 5FU (10 mM)): 40.7%
- % Decrease in Apoptotic cells (with respect to control) ([3]; 50 μg/ml + 5FU (10 mM)): −32.0%
- cell viability against 5-FU induced cell damage [4]: 56.8-78.4%
- % Protection ([4]; 1 μg/ml + 5-FU (5 mM)): 26%
- % Protection ([4]; 10 μg/ml + 5-FU (5 mM)): 50.6%
- % Protection ([4]; 25 μg/ml + 5-FU (5 mM)): 51%
- % Protection ([4]; 50 μg/ml + 5-FU (5 mM)): 63%
- % Protection ([4]; 100 μg/ml + 5-FU (5 mM)): 53%
- Percentage Inhibition NF-kB (NF-kB; 0.1 μg/ml + 5-FU (10 mM)): 88.6%
- Percentage Inhibition NF-kB (NF-kB; 10 μg/ml + 5-FU (10 mM)): 98.4%
- Percentage Inhibition NF-kB (NF-kB; 25 μg/ml + 5-FU (10 mM)): 59.7%
- Percentage Inhibition NF-kB (NF-kB; 50 μg/ml + 5-FU (10 mM)): 53%
- Percentage Inhibition NF-kB (NF-kB; 100 μg/ml + 5-FU (10 mM)): 84.3%
